# Data from the supplement of paper PMC5998384.
# Columns and labels:
# HeLa Kyoto [1] = experiment: solubility in G1/S (NP-40 vs SDS abundance) (log2 ratio); higher = more soluble; details: cell cycle stage: G1/S
# HeLa Kyoto [2] = experiment: melting temperature (median over replicates), in situ; higher = more thermally stable
# HeLa Kyoto [3] = experiment: solubility change mitosis vs G1/S (difference of NP-40 vs SDS log2 ratios) (log2 ratio difference); higher = more soluble in mitosis
# HeLa Kyoto [4] = experiment: thermal stability score vs G1/S (z-score of summed log2 fold changes over temperatures); higher = more thermally stable than in G1/S
# [5] = cell cycle stage: early G1 (4.5 h after nocodazole release)
# 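Throughout, for melting temperature (median over replicates), in situ: HeLa Kyoto cells synchronized by double thymidine or nocodazole block, proteins quantified by TMT10plex mass spectrometry, three independent biological replicates.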
# 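Throughout, for solubility change mitosis vs G1/S (difference of NP-40 vs SDS log2 ratios): synchronized HeLa Kyoto cells (double thymidine block for G1/S, nocodazole release for mitosis), protein amounts in NP-40 versus SDS lysates quantified by mass spectrometry, three biological replicates.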
# 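Throughout, for solubility in G1/S (NP-40 vs SDS abundance): HeLa Kyoto cells arrested at G1/S by double thymidine block, proteins quantified by TMT10plex mass spectrometry in mild NP-40 versus SDS extracts, three biological replicates.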
# 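Throughout, for thermal stability score vs G1/S (z-score of summed log2 fold changes over temperatures): synchronized HeLa Kyoto cells, proteins quantified by TMT10plex mass spectrometry, three biological replicates, mitosis taken 0.5 h after nocodazole release, G1/S directly after double thymidine block.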
Sequence,solubility in G1/S (log2) (HeLa Kyoto [1]),melting temperature (HeLa Kyoto [2]; cell cycle stage: G1/S) [°C],melting temperature (HeLa Kyoto [2]; cell cycle stage: mitosis) [°C],solubility change mitosis (log2) (HeLa Kyoto [3]),thermal stability score (HeLa Kyoto [4]; [5]),thermal stability score (HeLa Kyoto [4]; cell cycle stage: mitosis)
MGDMKTPDFDDLLAAFDIPDIDANEAIHSGPEENEGPGGPGKPEPGVGSESEDTAAASAGDGPGVPAQASDHGLPPPDISVVSVIVKNTVCPEQSEALAGGSAGDGAQAAGVTKEGPVGPHRMQNGFGSPEPSLPGTPHSPAPPSGGTWKEKGMEGKTPLDLFAHFGPEPGDHSDPLPPSAPSPTREGALTPPPFPSSFELAQENGPGMQPPVSSPPLGALKQESCSPHHPQVLAQQGSGSSPKATDIPASASPPPVAGVPFFKQSPGHQSPLASPKVPVCQPLKEEDDDEGPVDKSSPGSPQSPSSGAEAADEDSNDSPASSSSRPLKVRIKTIKTSCGNITRTVTQVPSDPDPPAPLAEGAFLAEASLLKLSPATPTSEGPKVVSVQLGDGTRLKGTVLPVATIQNASTAMLMAASVARKAVVLPGGTATSPKMIAKNVLGLVPQALPKADGRAGLGTGGQKVNGASVVMVQPSKTATGPSTGGGTVISRTQSSLVEAFNKILNSKNLLPAYRPNLSPPAEAGLALPPTGYRCLECGDAFSLEKSLARHYDRRSMRIEVTCNHCARRLVFFNKCSLLLHAREHKDKGLVMQCSHLVMRPVALDQMVGQPDITPLLPVAVPPVSGPLALPALGKGEGAITSSAITTVAAEAPVLPLSTEPPAAPATSAYTCFRCLECKEQCRDKAGMAAHFQQLGPPAPGATSNVCPTCPMMLPNRCSFSAHQRMHKNRPPHVCPECGGNFLQANFQTHLREACLHVSRRVGYRCPSCSVVFGGVNSIKSHIQTSHCEVFHKCPICPMAFKSGPSAHAHLYSQHPSFQTQQAKLIYKCAMCDTVFTHKPLLSSHFDQHLLPQRVSVFKCPSCPLLFAQKRTMLEHLKNTHQSGRLEETAGKGAGGALLTPKTEPEELAVSQGGAAPATEESSSSSEEEEVPSSPEPPRPAKRPRRELGSKGLKGGGGGPGGWTCGLCHSWFPERDEYVAHMKKEHGKSVKKFPCRLCERSFCSAPSLRRHVRVNHEGIKRVYPCRYCTEGKRTFSSRLILEKHVQVRHGLQLGAQSPGRGTTLARGSSARAQGPGRKRRQSSDSCSEEPDSTTPPAKSPRGGPGSGGHGPLRYRSSSSTEQSLMMGLRVEDGAQQCLDCGLCFASPGSLSRHRFISHKKRRGVGKASALGLGDGEEEAPPSRSDPDGGDSPLPASGGPLTCKVCGKSCDSPLNLKTHFRTHGMAFIRARQGAVGDN [ZNF687],-0.224,49,50.3,0.08,0.612,1.77
MGDPERPEAAGLDQDERSSSDTNESEIKSNEEPLLRKSSRRFVIFPIQYPDIWKMYKQAQASFWTAEEVDLSKDLPHWNKLKADEKYFISHILAFFAASDGIVNENLVERFSQEVQVPEARCFYGFQILIENVHSEMYSLLIDTYIRDPKKREFLFNAIETMPYVKKKADWALRWIADRKSTFGERVVAFAAVEGVFFSGSFAAIFWLKKRGLMPGLTFSNELISRDEGLHCDFACLMFQYLVNKPSEERVREIIVDAVKIEQEFLTEALPVGLIGMNCILMKQYIEFVADRLLVELGFSKVFQAENPFDFMENISLEGKTNFFEKRVSEYQRFAVMAETTDNVFTLDADF [RRM2B],0.00384,56.5,54.2,-0.132,-1.2,0.292
MGDPSKQDILTIFKRLRSVPTNKVCFDCGAKNPSWASITYGVFLCIDCSGSHRSLGVHLSFIRSTELDSNWSWFQLRCMQVGGNASASSFFHQHGCSTNDTNAKYNSRAAQLYREKIKSLASQATRKHGTDLWLDSCVVPPLSPPPKEEDFFASHVSPEVSDTAWASAIAEPSSLTSRPVETTLENNEGGQEQGPSVEGLNVPTKATLEVSSIIKKKPNQAKKGLGAKKGSLGAQKLANTCFNEIEKQAQAADKMKEQEDLAKVVSKEESIVSSLRLAYKDLEIQMKKDEKMNISGKKNVDSDRLGMGFGNCRSVISHSVTSDMQTIEQESPIMAKPRKKYNDDSDDSYFTSSSSYFDEPVELRSSSFSSWDDSSDSYWKKETSKDTETVLKTTGYSDRPTARRKPDYEPVENTDEAQKKFGNVKAISSDMYFGRQSQADYETRARLERLSASSSISSADLFEEPRKQPAGNYSLSSVLPNAPDMAQFKQGVRSVAGKLSVFANGVVTSIQDRYGS [ARFGAP3],0.135,51.3,51.4,-0.125,-0.314,0.332
MGDVLSTHLDDARRQHIAEKTGKILTEFLQFYEDQYGVALFNSMRHEIEGTGLPQAQLLWRKVPLDERIVFSGNLFQHQEDSKKWRNRFSLVPHNYGLVLYENKAAYERQVPPRAVINSAGYKILTSVDQYLELIGNSLPGTTAKSGSAPILKCPTQFPLILWHPYARHYYFCMMTEAEQDKWQAVLQDCIRHCNNGIPEDSKVEGPAFTDAIRMYRQSKELYGTWEMLCGNEVQILSNLVMEELGPELKAELGPRLKGKPQERQRQWIQISDAVYHMVYEQAKARFEEVLSKVQQVQPAMQAVIRTDMDQIITSKEHLASKIRAFILPKAEVCVRNHVQPYIPSILEALMVPTSQGFTEVRDVFFKEVTDMNLNVINEGGIDKLGEYMEKLSRLAYHPLKMQSCYEKMESLRLDGLQQRFDVSSTSVFKQRAQIHMREQMDNAVYTFETLLHQELGKGPTKEELCKSIQRVLERVLKKYDYDSSSVRKRFFREALLQISIPFLLKKLAPTCKSELPRFQELIFEDFARFILVENTYEEVVLQTVMKDILQAVKEAAVQRKHNLYRDSMVMHNSDPNLHLLAEGAPIDWGEEYSNSGGGGSPSPSTPESATLSEKRRRAKQVVSVVQDEEVGLPFEASPESPPPASPDGVTEIRGLLAQGLRPESPPPAGPLLNGAPAGESPQPKAAPEASSPPASPLQHLLPGKAVDLGPPKPSDQETGEQVSSPSSHPALHTTTEDSAGVQTEF [FAM129B],0.283,51.6,51.2,-0.0461,-0.711,2.24
MGEFNEKKTTCGTVCLKYLLFTYNCCFWLAGLAVMAVGIWTLALKSDYISLLASGTYLATAYILVVAGTVVMVTGVLGCCATFKERRNLLRLYFILLLIIFLLEIIAGILAYAYYQQLNTELKENLKDTMTKRYHQPGHEAVTSAVDQLQQEFHCCGSNNSQDWRDSEWIRSQEAGGRVVPDSCCKTVVALCGQRDHASNIYKVEGGCITKLETFIQEHLRVIGAVGIGIACVQVFGMIFTCCLYRSLKLEHY [CD151],-0.288,60,61.3,0.0099,0.401,-1.63
MGEKSENCGVPEDLLNGLKVTDTQEAECAGPPVPDPKNQHSQSKLLRDDEAHLQEDQGEEECFHDCSASFEEEPGADKVENKSNEDVNSSELDEEYLIELEKNMSDEEKQKRREESTRLKEEGNEQFKKGDYIEAESSYSRALEMCPSCFQKERSILFSNRAAARMKQDKKEMAINDCSKAIQLNPSYIRAILRRAELYEKTDKLDEALEDYKSILEKDPSIHQAREACMRLPKQIEERNERLKEEMLGKLKDLGNLVLRPFGLSTENFQIKQDSSTGSYSINFVQNPNNNR [TTC1],0.455,56.2,56.4,0.183,-3,-2.41
MGEPQGSMRILVTGGSGLVGKAIQKVVADGAGLPGEDWVFVSSKDADLTDTAQTRALFEKVQPTHVIHLAAMVGGLFRNIKYNLDFWRKNVHMNDNVLHSAFEVGARKVVSCLSTCIFPDKTTYPIDETMIHNGPPHNSNFGYSYAKRMIDVQNRAYFQQYGCTFTAVIPTNVFGPHDNFNIEDGHVLPGLIHKVHLAKSSGSALTVWGTGNPRRQFIYSLDLAQLFIWVLREYNEVEPIILSVGEEDEVSIKEAAEAVVEAMDFHGEVTFDTTKSDGQFKKTASNSKLRTYLPDFRFTPFKQAVKETCAWFTDNYEQARK [TSTA3],0.141,59.3,58.2,-0.116,-3.68,-2.17
MGFGDLKSPAGLQVLNDYLADKSYIEGYVPSQADVAVFEAVSSPPPADLCHALRWYNHIKSYEKEKASLPGVKKALGKYGPADVEDTTGSGATDSKDDDDIDLFGSDDEEESEEAKRLREERLAQYESKKAKKPALVAKSSILLDVKPWDDETDMAKLEECVRSIQADGLVWGSSKLVPVGYGIKKLQIQCVVEDDKVGTDMLEEQITAFEDYVQSMDVAAFNKI [EEF1B2],0.522,50.7,50.6,0.236,-1.43,-1.91
MGHPPLLPLLLLLHTCVPASWGLRCMQCKTNGDCRVEECALGQDLCRTTIVRLWEEGEELELVEKSCTHSEKTNRTLSYRTGLKITSLTEVVCGLDLCNQGNSGRAVTYSRSRYLECISCGSSDMSCERGRHQSLQCRSPEEQCLDVVTHWIQEGEEGRPKDDRHLRGCGYLPGCPGSNGFHNNDTFHFLKCCNTTKCNEGPILELENLPQNGRQCYSCKGNSTHGCSSEETFLIDCRGPMNQCLVATGTHEPKNQSYMVRGCATASMCQHAHLGDAFSMNHIDVSCCTKSGCNHPDLDVQYRSGAAPQPGPAHLSLTITLLMTARLWGGTLLWT [PLAUR],0.19,52.8,56.2,-0.232,0.197,4.92
MGKGDPKKPRGKMSSYAFFVQTCREEHKKKHPDASVNFSEFSKKCSERWKTMSAKEKGKFEDMAKADKARYEREMKTYIPPKGETKKKFKDPNAPKRPPSAFFLFCSEYRPKIKGEHPGLSIGDVAKKLGEMWNNTAADDKQPYEKKAAKLKEKYEKDIAAYRAKGKPDAAKKGVVKAEKSKKKKEEEEDEEDEEDEEEEEDEEDEDEEEDDDDE [HMGB1],0.464,55.4,54.4,0.257,3.27,2.58
MGKGDPNKPRGKMSSYAFFVQTCREEHKKKHPDSSVNFAEFSKKCSERWKTMSAKEKSKFEDMAKSDKARYDREMKNYVPPKGDKKGKKKDPNAPKRPPSAFFLFCSEHRPKIKSEHPGLSIGDTAKKLGEMWSEQSAKDKQPYEQKAAKLKEKYEKDIAAYRAKGKSEAGKKGPGRPTGSKKKNEPEDEEEEEEEEDEDEEEEDEDEE [HMGB2],0.485,58.1,56.7,0.338,0.292,-0.27
MGKIALQLKATLENITNLRPVGEDFRWYLKMKCGNCGEISDKWQYIRLMDSVALKGGRGSASMVQKCKLCARENSIEILSSTIKPYNAEDNENFKTIVEFECRGLEPVDFQPQAGFAAEGVESGTAFSDINLQEKDWTDYDEKAQESVGIYEVTHQFVKC [C1ORF123],-0.207,52.2,52.1,-0.125,-0.132,0.084
